We go through 40 sequences from the nanobody polyreactivity screen of Harvey et al. (2022).

The nature of this series: yeast display, Sf9 membrane polyspecificity reagent, FACS + sequencing; frameworks hold sequencing errors. An outline of the steps: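 In a synthetic yeast display library (Saccharomyces cerevisiae BJ5465), nanobody expression was induced with galactose for 36–48 hours. FACS gates were set low and high (top ~1%) using anti-HA fluorescence for expression and streptavidin fluorescence for binding of the Sf9 membrane reagent. Each polyreactivity label is drawn from the gate of origin.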
For “QVQLVESGGGLVQAGGSLRLSCAASGSTFYIYAMGWYRQAPGKERELVARISGSGGSTYYADSVKGRFTISRDNAKNTVELQMNSLKPEDTAVYYCAADDIYKYYQYYAFPYYRYDYWGQGTQVTVSS”, the “polyreactivity (PSR sort gate)” value is on record as “low polyreactivity”.
The same measure for “QVQLVESGGGLVQAGGSLRLSCAASGFTFYLNAMGWYRQAPGKERELVAAISYSDGSTYYADSVKGRFTISRDNAKNTVYLQMNRLKPEDTAVYFCAADTTDPGGAYQLMDYWGQGTQVTVSS”: “high polyreactivity”; for “QVQLVESGGGLVQAGGSLRLSCAASGSIFSGYMGWYRQAPGKDRELVATITSGGSTYADSVKGRFTISRDNAKNSVYLQMNILKPEDTAVYYCARPRPVIQYSGLHYDYWGQGTEVTVSS”: “low polyreactivity”.
In the case of “QVQLVESGGVLVQAGGSLRLSCAASGRIIDLNAMGWYREAPGKQRDFVAGITDGGSTYYADSVKGRFTISRDNAKNTVYLQMNSLKPEDTAVDYCAADVYDYLSEFQAFVEEAGYYWGQGTQVTVSS”, the “polyreactivity (PSR sort gate)” value is “low polyreactivity”.
Regarding “QVQLVESGGGLVQAGGSLRLSCAASGSTFLDNTMGWYRQAPGKEREFVAAISSSVYSTYYADSVKGRFSISRDNAKNTVYLQMNSLKPEDTAVYFCAADRGFYPSLWDYDYWGQGTQVTVSS”, the “polyreactivity (PSR sort gate)” value is given as “low polyreactivity”.
“QVQLVESGGGLVQAGGSLRLSCAASGSTFQPNAMGWYRQAPGKERELVAAITGGDNTNYADSVKGRFTISRDNAKNTVYLQMNSLKPEDTAVYYCAAGGLGSRWYVGYDYWGQGTQVTVSS”: the “polyreactivity (PSR sort gate)” value is on record as “low polyreactivity”.
For “QVQLVESGGGLVQAGGSLRLSCAASGSTFDGNAMGWYRQAPGKESELVAAISWSGGSTYYADSVKGRFTISRDNAKNSVYLQLNSLKPEDTAVYYCNAVHYPYQHMGSWGQGTQVSVSS” the value was “low polyreactivity”; for “QVQLVESGGGLVQAGGSLRLSCAASGGIFARNAMGWYRQAPGKVRELVAAISWSGGRTYYADSVKGRFTISRDNAKNTDYLQMNSLKPEDTAVYYSAADHDPWWAWEFDYWGQGTQVTVSS”, “low polyreactivity”.
For “QVQLVESGGGLVQAGGSLRLSCAASGSIFGYYSMGWYRQAPGKERELVATITWGGGSTYADSVKGRFTISRDNAKNTVYLQMNSLKPEDTAVYYCNAGYRYTSAQVTWEYDYWGQGTQVTVSS” the value was “low polyreactivity”; for “QVQLVESGGGLVQAGGSLRISCAASGSTIQQYAMGRYRQAPGKEREFVAAISWRGGRTYYADSVKGRFTISRDNAKNTVYLQMNSLKPEDTAVYYCAVDPSIYRLSAYYYDYWGQGTQVTVSS”, “low polyreactivity”; for “QVQLVESGGGLVQAGGSLGLSCAASGSTFGFYTMGWYRQAPGKERELVATISYSGGDTYYEDSVKGRFTISRDNAKNTVYFQMNSLKPEYTAVYYCAADLGDYVTTYSWLDSWGQGTQVTVSS”, “low polyreactivity”.
The same measure for “QVQLVESGGGLVQAGGSLRLSCAASGRIFGYNAMGWYREAPGKERELVAAITGSGGSTYYADSVKGRFTISRDNAKNTVYLQMNSLKPEDTAVYYFATAYAVYHVEYGYWGQGTQVTVSS”: “low polyreactivity”; for “QVQLVESGGGLVQAGGSLRLSCAASGRIFPAYAMGWYRQAPGKERELVAAITGGGSTNYADSVKGRFTISRDNAKNTVYLQMNSLKPEDTAVYYCNAVTGTYGWAPQAREQEDYWGQGTQVTVSS”: “low polyreactivity”.
Turning to “QVQLVESGGGLVQAGGSLRLSCAATGRTFYVYAMGWYRQAPGKERELVADITWSGGSTYADSVKGRFTISRDNAKNTVYLQMNSLKPEDTAVYYCAAEWQTWYGVEYDYWGQGTQVTVSS”, the “polyreactivity (PSR sort gate)” value was “high polyreactivity”.
In the case of “QVQLVESGGGLVQAGGSLRLSCAASGRIFYYNAMGWYRQAPGKERELVARISSGGSTNYADSVKGRFTISRDNAKNTVYLQMNSLKPEDTAVYYCAVAKGGLAWGVGRAGRYDFWGQGTQVTVSS”, the “polyreactivity (PSR sort gate)” value is on record as “low polyreactivity”.
As for “QVQLVESGGCLVQAGGSLRLSCAASGSIITWNAMVWYRQAPGKERELVAAIDWDGGSTYYADSVKGRFTISRDNAKNTVYLQMHILKPEDTAVYYCAATYGWYTVRYPSGHYYYWGQGTQVTVSS”, the “polyreactivity (PSR sort gate)” value is reported as “low polyreactivity”.
The same measure for “QVQLVESGAGIVQAGGSLRLSCAASGRIFRYNAMGLYRQAPGKERELVAAITWSGVSTYYAHSVKGRFTISRDTAKITVFLQMNSLYPEDTGVYYCNGRRWPAWSSYDYWGQGTQVNVSS”: “high polyreactivity”; for “QVQLVESGGGLVQAGGSLRLSCAASGRIFVFYAMGWYRQAPGKERELVAAISKSVGPTYYADSVKGRFTISRDNAKNTVYLQMNSLKPEDTAVYYCASDVDRFFTYKYDYWGQGTQVTVSS”: “low polyreactivity”.
“QVQLEESGGGLVQAGGSLRLSCAASGGIFPAYAMGWYRQAPGKERELVASISANGGRTYYADSVKGRFTISRDNAKNTVYLQMNSLKPEDTAVYYCNASSLSGSWRFYYWGQGTQVTVSS”: the “polyreactivity (PSR sort gate)” value is recorded as “high polyreactivity”.
For “QVQLVESGGGLVQAGGSLRLSCAASGSIFESYAMGWYRQAPGKEREFVAAISDSGADTYYADSVKGRFTISRDNAKNTVYLQMNSLKPEDTAVYYCNADKEFAVLGQGMDYWGQGTQVTVSS” the value was “low polyreactivity”; for “QVQLVESGGGLVHAGGSLRLSCAASGSIFGFNAMGWYRPAPGKERELVAAISSGSTYYADSVKGRYTISRDNAKTTVYLQMNSLKPEDTAVYYCAATTGYSWYGYWGQGTQVTVSS”, “low polyreactivity”; for “QVQLVDSGGALVQAGGSLRLRCAASGSTFFPNAKGWYRQAPGKERELVATIKYADSVKGRFTISRYNAKNTVYLQMNSLKPEDTAVYYCAGGGRVRYDYWGQGTQVTVSS”, “low polyreactivity”.
Regarding “QVQLVESGGGLVQAGGSLRLSCDAYGSIFRLYAMGWFRQAPGKEREFVAAIDKRGGRTHYADSVKGRFTISRDNAKNTVYLQITSLKPEDTAVYYCAAKAYVVTNGHGKLDYWGQGPQVTVSS”, the “polyreactivity (PSR sort gate)” value is recorded as “high polyreactivity”.
Consider “QVQLVESGGGLVQAGGSLRLSCAASGLTLKRYAMGWYRQAPGKERELVAAISTRGGSTYYADSVKGRFTISRDNAKNTVYLQMNSLKPEDTAVYYCAAGDYWGQGTQVTVSS”, for which the “polyreactivity (PSR sort gate)” value was “high polyreactivity”.
Turning to “QVQLVESGGGLVQAGGSLRLSCAASGIIIRSYAMGWDRQAPGKERELVAAITRSGGSTYADSVKGRFTISRDNAKNTVYLQKNSLKPEDTAVYYCAADRYSGWVYRRDDWGQGTQVPVSS”, the “polyreactivity (PSR sort gate)” value is “low polyreactivity”.
The same measure for “QVQIVESGGGLVQAGGSLRLSCAASGSIFDDYAMGWYRQAPGKERELVAAISSGVSTDYADSVKGRFTISRDNAKNTVYLQMYSLKPEDTAVYYCAADDQYRVTLGYDYWGQGTQVTVSS”: “low polyreactivity”.
For “QVQLVESGGGLVQAGGSLGLNCAASGFTFRVNAMGLYSQAPGKEREFVAAITASGGSTYYADSVKGRFTISRDNAKNTVYLLMNSLKPVDTAVYYCAADWWIYWYPDTGDYWGQRTQVTVSS” the value was “high polyreactivity”; for “QVQLVESGGGLVQAGGSLRLSCAASGRIFAYNAMGWYRQAPGKERELVAAISSGGNTYYADSVKGRFTISRDNAKNTVYLQMNSLKPEDTAVYYCNAGVGWHRYYSNYDFWGQGTQVTVSS”, “low polyreactivity”.
For “QVQLVESGGGLVQAGGSLRLSCAASGITFSGYAMGWYRQAPGKERDFVAGISYSGGSTYYADSVKGRFTISRDNAKNTVYLQMNSLKPEDTAVYYCAAYFGHYWRYYYWGQGTQVTVSS”, the “polyreactivity (PSR sort gate)” value is on record as “high polyreactivity”.
For “QVQLVESGGGLVQAGGSLRLSCAASGRTFTRNVMGWYRQAPGKERELVARISYSGGSTSYADSVKGRFTISRDNAKNTVYLQMNSLKPEDTAVYYCAKYSGKYVSGRYRYYSWGQGTQVTVSS” the value was “high polyreactivity”; for “QVQLVESGGGLVQAGGSLRLSCAASGGTFVRYAMGGYRPAPGKERELVAAISSRGGSTYYADSVKGRFTISRDNAKNTVFLQMNSLKPEDTAVYYCAARPGYYDFYWGQGTQVTVSS”, “high polyreactivity”; for “QVQLVESGGGLFQAGGSLRLICAASGNIFKSYTMGWYRQAPGKERELVAAITSGGRTNYADSVKGRFTISRDNAKNTVYLQMNSLKPEDTAVYYCNAYKVFWVSIRYKFDYWGQGTQVTVSS”, “high polyreactivity”.
For “QVQLVESGGGLVQAGGSLRLSCAASGSIFEVNAMGWYTQAPGKERELVATITYSGGSTYYADSVKGRFTISRDNAKNTVYLQMNSLKPEDTAVYYCATDYVDWELYIYDYWGQGTQVTVSS”, the “polyreactivity (PSR sort gate)” value is recorded as “low polyreactivity”.
The same measure for “QVQLVESGGGLVQAGGSLRLSCAASGFILRYYVMGWYRQAPGKERELVAAISSSGGRTYYADSVKGRFTISRDNAKNTVYLQMNSLKPEDTGVYYCATSTYAYRRKSYFYTRPRFGYWGQGYQVTVSS”: “high polyreactivity”; for “QVQLVESGGGLVQAGGSLRLSCAASGFIFYAYAMGWYRQAPGKERELVAAIDSGGNTYADSVKGRFTISRDNAKNTVYLQMNSLKPEDTAVYYCAVDGGEFSSYGYWGQGTQVTVSS”: “low polyreactivity”.
The same measure for “QVQLVESGGGLVQAGGSLRLSCAASGRTFLRYAMGWYRQAPGKERELVAAISSRGGTTHYADSVKGRFTISRDNAKNTVYLLMNSLKPEDTAVYYCAAKSFLPYLKFGYWGQGTQVTVSS”: “high polyreactivity”; for “QVQLVESGGGLVQAGGSLRLSCAASGFIFDWNTMGWYRQAPGKERELVAAITESSGSTYYADSVKGRFTISRDNAKNTVYLQMNSLKPEDTAVYYCAADLDVYVSIGSRFHFDYWGQGTQVTVSS”: “low polyreactivity”; for “QVQLVESGGGLVQAGGSLRLICAASGRIFLYYAMGWYRQAPGKERELVADINSGGNTTYADSVKGRFTISRDNAKNTVYLQMNSLKPEDTAVYYCAADPVFDLWEFVLDYGYDYWGQGTQVTVSS”: “low polyreactivity”.
The same measure for “QVQLVESGGGLVQAGGSLRLTCAASGLIFRRYAMGWYRQAPGKERELVAAINTSGGSTYYADSVKGRFTISRDNAKNTVYLQMNSLKPEDSAVSYCNTVSPYKYDWGKGTQVTVSS”: “low polyreactivity”.
In the case of “QVQLVESGGGLVQAGGSLRLSCAASGRIFSDYAMGRYRQAPGKDRELVATITTGDSTNYADSVKGRFTISRDNAKNTVYLQMNSLKPEDTAVYYCNADRFADYDYWGQGTQVTVSS”, the “polyreactivity (PSR sort gate)” value is listed as “low polyreactivity”.
